Results published in US20150344570A1 (published 2015).

T1: FcγRIIa H (human, UniProt P12318 34-217)
T1 construct: extracellular domain; also called FcγRIIa type H; 2aH
T1 sequence (looked up): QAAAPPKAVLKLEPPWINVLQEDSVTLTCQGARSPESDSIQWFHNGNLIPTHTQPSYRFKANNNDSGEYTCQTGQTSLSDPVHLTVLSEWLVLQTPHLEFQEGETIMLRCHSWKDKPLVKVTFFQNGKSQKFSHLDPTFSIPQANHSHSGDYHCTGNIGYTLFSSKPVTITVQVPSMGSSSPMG

T2: FcγRIIb (human, UniProt P31994 43-217)
T2 construct: extracellular domain; also called 2b; FcgRIIb
T2 sequence (looked up): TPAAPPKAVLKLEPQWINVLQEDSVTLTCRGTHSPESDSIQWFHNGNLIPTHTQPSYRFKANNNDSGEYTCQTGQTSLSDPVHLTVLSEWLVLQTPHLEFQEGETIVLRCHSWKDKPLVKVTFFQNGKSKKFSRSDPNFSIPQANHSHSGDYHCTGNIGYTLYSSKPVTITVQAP


Experiments:
[1] = molecular target: T1, FcγRIIa H; test: ratio of He/Con_2aH to He/Con_2b (FcγRIIb); SPR
[2] = molecular target: T2, FcγRIIb; test: SPR (Biacore), captured antibody, FcγR as analyte; GpH7-A5/GpH7-B3/GpL16-k0 = 100
Description: (§1) The heterodimerized antibodies He Abs in which one of the H chains was introduced with an alteration were assayed for their binding activities to each activating FcγR and inhibitory FcγR according to the method described in Example 4. […] The activating FcγRs in FIGS. 26, 27, 28, and 29 are FcγRIa, FcγRIIa (R), FcγRIIa (H), and FcγRIIIa, respectively.
(§2) Analysis of interaction between objective antibody and the FcγR was carried out using Biacore T100 (GE Healthcare). HBS-EP+ (GE Healthcare) was used as the running buffer, and the measurement temperature was set to 25° C. Chips produced by immobilizing the antigen peptide by the amine coupling method to a Series S Sencor Chip CM5 (GE Healthcare), or alternatively, chips produced by allowing preliminarily biotinylated antigen peptides to interact with and immobilize onto a Series S Sensor Chip SA (certified) (GE Healthcare) were used. Antibodies of interest were captured onto an antigen peptide-immobilized chip, and allowed to interact to each FcγR diluted with running buffer. To regenerate and repeatedly use the chip, the antibodies captured on the chip were washed off by reacting 10 mM glycine-HCl, pH 1.5.

[3] = molecular target: T1, FcγRIIa H; test: as above
Description: as §1, §2

He_2aH/2b (IIaH/IIb ratio) [1]	He/Con_2b (relative binding) [2]	He/Con_2aH (relative binding) [3]	Binder
1.3	57.8%	75.3%	GpH7-A5/GpH7-B3 variant D270_14T/GpL16-k0 (antibody, human IgG1, kappa, Heterodimerized anti-glypican-3 IgG1 (He Ab); mutation in the B3 H chain only; also called He Ab) heavy 1: not shown heavy 2: not shown light: DIVMTQSPLSLPVTPGEPASISCQASESLVHSNRNTYLHWYLQKPGQSPQLLIYKVSNRFSGVPDRFSGSGSGTDFTLKISRVEAEDVGVYYCSQNTHVPPTFGQGTKVEIERTVAAPSVFIFPPSDEQLKSGTASVVCLLNNFYPREAKVQWKVDNALQSGNSQESVTEQDSKDSTYSLSSTLTLSKADYEKHKVYACEVTHQGLSSPVTKSFNRGEC
2.16	18.3%	39.5%	GpH7-A5/GpH7-B3 variant D270_12R/GpL16-k0 (antibody, human IgG1, kappa, Heterodimerized anti-glypican-3 IgG1 (He Ab); mutation in the B3 H chain only; also called He Ab) heavy 1: not shown heavy 2: not shown light: DIVMTQSPLSLPVTPGEPASISCQASESLVHSNRNTYLHWYLQKPGQSPQLLIYKVSNRFSGVPDRFSGSGSGTDFTLKISRVEAEDVGVYYCSQNTHVPPTFGQGTKVEIERTVAAPSVFIFPPSDEQLKSGTASVVCLLNNFYPREAKVQWKVDNALQSGNSQESVTEQDSKDSTYSLSSTLTLSKADYEKHKVYACEVTHQGLSSPVTKSFNRGEC
1.54	48.2%	74.4%	GpH7-A5/GpH7-B3 variant D270_06M/GpL16-k0 (antibody, human IgG1, kappa, Heterodimerized anti-glypican-3 IgG1 (He Ab); mutation in the B3 H chain only; also called He Ab) heavy 1: not shown heavy 2: not shown light: DIVMTQSPLSLPVTPGEPASISCQASESLVHSNRNTYLHWYLQKPGQSPQLLIYKVSNRFSGVPDRFSGSGSGTDFTLKISRVEAEDVGVYYCSQNTHVPPTFGQGTKVEIERTVAAPSVFIFPPSDEQLKSGTASVVCLLNNFYPREAKVQWKVDNALQSGNSQESVTEQDSKDSTYSLSSTLTLSKADYEKHKVYACEVTHQGLSSPVTKSFNRGEC
1.6	44.9%	71.9%	GpH7-A5/GpH7-B3 variant D270_15Y/GpL16-k0 (antibody, human IgG1, kappa, Heterodimerized anti-glypican-3 IgG1 (He Ab); mutation in the B3 H chain only; also called He Ab) heavy 1: not shown heavy 2: not shown light: DIVMTQSPLSLPVTPGEPASISCQASESLVHSNRNTYLHWYLQKPGQSPQLLIYKVSNRFSGVPDRFSGSGSGTDFTLKISRVEAEDVGVYYCSQNTHVPPTFGQGTKVEIERTVAAPSVFIFPPSDEQLKSGTASVVCLLNNFYPREAKVQWKVDNALQSGNSQESVTEQDSKDSTYSLSSTLTLSKADYEKHKVYACEVTHQGLSSPVTKSFNRGEC
1.54	41.5%	64%	GpH7-A5/GpH7-B3 variant D270_07I/GpL16-k0 (antibody, human IgG1, kappa, Heterodimerized anti-glypican-3 IgG1 (He Ab); mutation in the B3 H chain only; also called He Ab) heavy 1: not shown heavy 2: not shown light: DIVMTQSPLSLPVTPGEPASISCQASESLVHSNRNTYLHWYLQKPGQSPQLLIYKVSNRFSGVPDRFSGSGSGTDFTLKISRVEAEDVGVYYCSQNTHVPPTFGQGTKVEIERTVAAPSVFIFPPSDEQLKSGTASVVCLLNNFYPREAKVQWKVDNALQSGNSQESVTEQDSKDSTYSLSSTLTLSKADYEKHKVYACEVTHQGLSSPVTKSFNRGEC

The next lines start with the binder.

Binder	He_2aH/2b (IIaH/IIb ratio) [1]	He/Con_2b (relative binding) [2]	He/Con_2aH (relative binding) [3]
GpH7-A5/GpH7-B3 variant D270_04F/GpL16-k0 (antibody, human IgG1, kappa, Heterodimerized anti-glypican-3 IgG1 (He Ab); mutation in the B3 H chain only; also called He Ab) heavy 1: not shown heavy 2: not shown light: DIVMTQSPLSLPVTPGEPASISCQASESLVHSNRNTYLHWYLQKPGQSPQLLIYKVSNRFSGVPDRFSGSGSGTDFTLKISRVEAEDVGVYYCSQNTHVPPTFGQGTKVEIERTVAAPSVFIFPPSDEQLKSGTASVVCLLNNFYPREAKVQWKVDNALQSGNSQESVTEQDSKDSTYSLSSTLTLSKADYEKHKVYACEVTHQGLSSPVTKSFNRGEC	1.42	53.1%	75.4%
GpH7-A5/GpH7-B3 variant D270_02A/GpL16-k0 (antibody, human IgG1, kappa, Heterodimerized anti-glypican-3 IgG1 (He Ab); mutation in the B3 H chain only; also called He Ab) heavy 1: not shown heavy 2: not shown light: DIVMTQSPLSLPVTPGEPASISCQASESLVHSNRNTYLHWYLQKPGQSPQLLIYKVSNRFSGVPDRFSGSGSGTDFTLKISRVEAEDVGVYYCSQNTHVPPTFGQGTKVEIERTVAAPSVFIFPPSDEQLKSGTASVVCLLNNFYPREAKVQWKVDNALQSGNSQESVTEQDSKDSTYSLSSTLTLSKADYEKHKVYACEVTHQGLSSPVTKSFNRGEC	1.58	48.3%	76.4%
GpH7-A5/GpH7-B3 variant D270_03V/GpL16-k0 (antibody, human IgG1, kappa, Heterodimerized anti-glypican-3 IgG1 (He Ab); mutation in the B3 H chain only; also called He Ab) heavy 1: not shown heavy 2: not shown light: DIVMTQSPLSLPVTPGEPASISCQASESLVHSNRNTYLHWYLQKPGQSPQLLIYKVSNRFSGVPDRFSGSGSGTDFTLKISRVEAEDVGVYYCSQNTHVPPTFGQGTKVEIERTVAAPSVFIFPPSDEQLKSGTASVVCLLNNFYPREAKVQWKVDNALQSGNSQESVTEQDSKDSTYSLSSTLTLSKADYEKHKVYACEVTHQGLSSPVTKSFNRGEC	1.56	39.5%	61.8%
